In publication PMC7470980, “Mechanism of translation inhibition by type II GNAT toxin AtaT2” (Nucleic Acids Research, 2020):

Assays:
SEC = molecular target: the molecule itself; assay: SEC
[1] = molecular target: the molecule itself; assay: SEC; […]; 10 mM Tris-HCl pH 8.0, 150 mM NaCl; 0.2 ml/min; […]

Protein	stoichiometry N (SEC)	stoichiometry N [1]
AtaT2 toxin (enzyme) MGITAPTPLTSEHNLADFCCSDHGMNEWLKKKALKNHSSGLSRVYVICIANTRQVIGYYCLSTGSIQRNLAPGAMRRNAPESLPVVVLGRLAIDQAWAGKGLGVALLKDAVYRTMSIAQQVGVRALIVHALDDSVRNFYLKYAFVPSPFQSLTLLYPITLE	2	–
AtaR2 antitoxin (natural protein) MKPESKEAPINIRAKASQRDLIDMAANLVAKSRTDFMLDAACREAQDILLDQRLFILDDEQYDAFLAALDAPITAERQAKINALMNRKSPWE	–	4
